# In FireProtDB (doi:10.1021/bi00116a007):
# B1: Aspartate aminotransferase wild type, P00509 (protein)
# chain: MFENITAAPADPILGLADLFRADERPGKINLGIGVYKDETGKTPVLTSVKKAEQYLLENETTKNYLGIDGIPEFGRCTQELLFGKGSALINDKRARTAQTPGGTGALRVAADFLAKNTSVKRVWVSNPSWPNHKSVFNSAGLEVREYAYYDAENHTLDFDALINSLNEAQAGDVVLFHGCCHNPTGIDPTLEQWQTLAQLSVEKGWLPLFDFAYQGFARGLEEDAEGLRAFAAMHKELIVASSYSKNFGLYNERVGACTLVAADSETVDRAFSQMKAAIRANYSNPPAHGASVVATILSNDALRAIWEQELTDMRQRIQRMRQLFVNTLQEKGANRDFSFIIKQNGMFSFSGLTKEQVLRLREEFGVYAVASGRVNVAGMTPDNMAPLCEAIVAVL
# Conditions: Escherichia coli (strain K12); pH 7.5; 25 °C; Urea; DSC; potassium-HEPES 40 mM; reversible: yes; whole UniProt chain shown
protein,measurement,value
B1,denaturant m value,2.56 kcal/mol/M
same,denaturant midpoint (higher = more stable),3.89 M
same,unfolding free energy,9.96 kcal/mol
